According to US20100136573:

System: Recombinant human GST-TDP-43 (N-terminal GST tag, full length), non-phosphorylated
Sequence (chain, as listed by the source): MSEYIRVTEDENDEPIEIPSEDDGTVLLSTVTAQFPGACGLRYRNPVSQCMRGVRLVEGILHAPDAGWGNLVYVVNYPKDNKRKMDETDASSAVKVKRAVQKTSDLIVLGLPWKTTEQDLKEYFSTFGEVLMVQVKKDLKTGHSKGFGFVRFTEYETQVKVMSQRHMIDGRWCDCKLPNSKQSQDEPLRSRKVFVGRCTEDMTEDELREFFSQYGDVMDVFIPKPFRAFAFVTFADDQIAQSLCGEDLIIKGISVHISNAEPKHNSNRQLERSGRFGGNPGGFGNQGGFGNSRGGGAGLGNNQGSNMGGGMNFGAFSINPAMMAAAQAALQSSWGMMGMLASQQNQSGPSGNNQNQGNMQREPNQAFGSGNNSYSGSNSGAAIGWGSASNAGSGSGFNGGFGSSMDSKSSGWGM

“recombinant casein kinase 1 (CK1; New England BioLabs, Inc)” was tested. Which “in vitro phosphorylation, read by anti-pTDP-43 Western blot” value did it give?
The value was “CK1 effectively phosphorylated GST-TDP-43 at S409/S410 in vitro”.
